Measured values reported in the supplement of paper PMC5998384.

Experiments:
HeLa Kyoto [1] = experiment: thermal stability score vs G1/S (z-score of summed log2 fold changes over temperatures); higher = more thermally stable than in G1/S
HeLa Kyoto [2] = experiment: melting temperature (median over replicates), in situ; higher = more thermally stable
HeLa Kyoto [3] = experiment: solubility in G1/S (NP-40 vs SDS abundance) (log2 ratio); higher = more soluble; conditions: cell cycle stage: G1/S
HeLa Kyoto [4] = experiment: solubility change mitosis vs G1/S (difference of NP-40 vs SDS log2 ratios) (log2 ratio difference); higher = more soluble in mitosis
[5] = cell cycle stage: early G1 (4.5 h after nocodazole release)
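For melting temperature (median over replicates), in situ in this document: HeLa Kyoto cells synchronized by double thymidine or nocodazole block, proteins quantified by TMT10plex mass spectrometry, three independent biological replicates.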
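For solubility change mitosis vs G1/S (difference of NP-40 vs SDS log2 ratios) in this document: synchronized HeLa Kyoto cells (double thymidine block for G1/S, nocodazole release for mitosis), protein amounts in NP-40 versus SDS lysates quantified by mass spectrometry, three biological replicates.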
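For solubility in G1/S (NP-40 vs SDS abundance) in this document: HeLa Kyoto cells arrested at G1/S by double thymidine block, proteins quantified by TMT10plex mass spectrometry in mild NP-40 versus SDS extracts, three biological replicates.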
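For thermal stability score vs G1/S (z-score of summed log2 fold changes over temperatures) in this document: synchronized HeLa Kyoto cells, proteins quantified by TMT10plex mass spectrometry, three biological replicates, mitosis taken 0.5 h after nocodazole release, G1/S directly after double thymidine block.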

Sequence of ZNF207 (chain, as listed by the source): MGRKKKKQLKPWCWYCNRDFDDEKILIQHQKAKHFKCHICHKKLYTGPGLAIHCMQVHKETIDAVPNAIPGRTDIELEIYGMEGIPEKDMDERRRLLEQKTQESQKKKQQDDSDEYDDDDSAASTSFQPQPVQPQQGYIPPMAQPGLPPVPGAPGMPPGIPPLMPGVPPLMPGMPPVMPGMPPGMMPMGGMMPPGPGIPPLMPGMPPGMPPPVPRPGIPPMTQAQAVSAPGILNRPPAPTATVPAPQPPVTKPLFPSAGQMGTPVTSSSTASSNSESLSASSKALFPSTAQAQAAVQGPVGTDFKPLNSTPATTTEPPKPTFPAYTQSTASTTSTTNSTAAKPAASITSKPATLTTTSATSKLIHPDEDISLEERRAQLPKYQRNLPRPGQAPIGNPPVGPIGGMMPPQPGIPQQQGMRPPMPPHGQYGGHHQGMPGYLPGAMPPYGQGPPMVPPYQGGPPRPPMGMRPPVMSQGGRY

Substance | thermal stability score (HeLa Kyoto [1]; [5]) | thermal stability score (HeLa Kyoto [1]; cell cycle stage: mitosis) | melting temperature (HeLa Kyoto [2]; cell cycle stage: G1/S) [°C] | melting temperature (HeLa Kyoto [2]; cell cycle stage: mitosis) [°C] | solubility in G1/S (log2) (HeLa Kyoto [3]) | solubility change mitosis (log2) (HeLa Kyoto [4])
MGCWGRNRGRLLCMLALTFMFMVLEVVVSRVTSSLAMLSDSFHMLSDVLALVVALVAERFARRTHATQKNTFGWIRAEVMGALVNAIFLTGLCFAILLEAIERFIEPHEMQQPLVVLGVGVAGLLVNVLGLCLFHHHSGFSQDSGHGHSHGGHGHGHGLPKGPRVKSTRPGSSDINVAPGEQGPDQEETNTLVANTSNSNGLKLDPADPENPRSGDTVEVQVNGNLVREPDHMELEEDRAGQLNMRGVFLHVLGDALGSVIVVVNALVFYFSWKGCSEGDFCVNPCFPDPCKAFVEIINSTHASVYEAGPCWVLYLDPTLCVVMVCILLYTTYPLLKESALILLQTVPKQIDIRNLIKELRNVEGVEEVHELHVWQLAGSRIIATAHIKCEDPTSYMEVAKTIKDVFHNHGIHATTIQPEFASVGSKSSVVPCELACRTQCALKQCCGTLPQAPSGKDAEKTPAVSISCLELSNNLEKKPRRTKAENIPAVVIEIKNMPNKQPESSL [SLC30A1] | -2.04 | -1.95 | 58.4 | 59.4 | -0.0235 | -0.0896
MGGLFSRWRTKPSTVEVLESIDKEIQALEEFREKNQRLQKLWVGRLILYSSVLYLFTCLIVYLWYLPDEFTARLAMTLPFFAFPLIIWSIRTVIIFFFSKRTERNNEALDDLKSQRKKILEEVMEKETYKTAKLILERFDPDSKKAKECEPPSAGAAVTARPGQEIRQRTAAQRNLSPTPASPNQGPPPQVPVSPGPPKDSSAPGGPPERTVTPALSSNVLPRHLGSPATSVPGMGLHPPGPPLARPILPRERGALDRIVEYLVGDGPQNRYALICQQCFSHNGMALKEEFEYIAFRCAYCFFLNPARKTRPQAPRLPEFSFEKRQVVEGSSSVGPLPSGSVLSSDNQFNEESLEHDVLDDNTEQTDDKIPATEQTNQVIEKASDSEEPEEKQETENEEASVIETNSTVPGADSIPDPELSGESLTAE | -1.47 | -0.475 | 55 | 56.9 | -0.311 | -0.0648
MGRRSSDTEEESRSKRKKKHRRRSSSSSSSDSRTYSRKKGGRKSRSKSRSWSRDLQPRSHSYDRRRRHRSSSSSSYGSRRKRSRSRSRGRGKSYRVQRSRSKSRTRRSRSRPRLRSHSRSSERSSHRRTRSRSRDRERRKGRDKEKREKEKDKGKDKELHNIKRGESGNIKAGLEHLPPAEQAKARLQLVLEAAAKADEALKAKERNEEEAKRRKEEDQATLVEQVKRVKEIEAIESDSFVQQTFRSSKEVKKSVEPSEVKQATSTSGPASAVADPPSTEKEIDPTSIPTAIKYQDDNSLAHPNLFIEKADAEEKWFKRLIALRQERLMGSPVA [RSRC1] | -1.05 | -4.78 | 51.5 | 50.4 | -0.945 | 0.261
MAAAVAAAGRLGWLFAALCLGNAAGEAAPGPRVLGFCLEEDGAAGAGWVRGGAARDTPDATFLLRLFGPGFANSSWSWVAPEGAGCREEAASPAGEWRALLRLRLRAEAVRPHSALLAVRVEPGGGAAEEAAPPWALGLGAAGLLALAALARGLQLSALALAPAEVQVLRESGSEAERAAARRLEPARRWAGCALGALLLLASLAQAALAVLLYRAAGQRAVPAVLGSAGLVFLVGEVVPAAVSGRWTLALAPRALGLSRLAVLLTLPVALPVGQLLELAARPGRLRERVLELARGGGDPYSDLSKGVLRCRTVEDVLTPLEDCFMLDASTVLDFGVLASIMQSGHTRIPVYEEERSNIVDMLYLKDLAFVDPEDCTPLSTITRFYNHPLHFVFNDTKLDAVLEEFKRGKSHLAIVQKVNNEGEGDPFYEVLGLVTLEDVIEEIIRSEILDESEDYRDTVVKRKPASLMAPLKRKEEFSLFKVSDDEYKVTISPQLLLATQRFLSREVDVFSPLRISEKVLLHLLKHPSVNQEVRFDESNRLATHHYLYQRSQPVDYFILILQGRVEVEIGKEGLKFENGAFTYYGVSALTVPSSVHQSPVSSLQPIRHDLQPDPGDGTHSSAYCPDYTVRALSDLQLIKVTRLQYLNALLATRAQNLPQSPENTDLQVIPGSQTRLLGEKTTTAAGSSHSRPGVPVEGSPGRNPGV [CNNM3] | -0.222 | -0.298 | 52.3 | 51.3 | 0.0405 | -0.00872
MADAGIRRVVPSDLYPLVLGFLRDNQLSEVANKFAKATGATQQDANASSLLDIYSFWLKSAKVPERKLQANGPVAKKAKKKASSSDSEDSSEEEEEVQGPPAKKAAVPAKRVGLPPGKAAAKASESSSSEESSDDDDEEDQKKQPVQKGVKPQAKAAKAPPKKAKSSDSDSDSSSEDEPPKNQKPKITPVTVKAQTKAPPKPARAAPKIANGKAASSSSSSSSSSSSDDSEEEKAAATPKKTVPKKQVVAKAPVKAATTPTRKSSSSEDSSSDEEEEQKKPMKNKPGPYSSVPPPSAPPPKKSLGTQPPKKAVEKQQPVESSEDSSDESDSSSEEEKKPPTKAVVSKATTKPPPAKKAAESSSDSSDSDSSEDDEAPSKPAGTTKNSSNKPAVTTKSPAVKPAAAPKQPVGGGQKLLTRKADSSSSEEESSSSEEEKTKKMVATTKPKATAKAALSLPAKQAPQGSRDSSSDSDSSSSEEEEEKTSKSAVKKKPQKVAGGAAPSKPASAKKGKAESSNSSSSDDSSEEEEEKLKGKGSPRPQAPKANGTSALTAQNGKAAKNSEEEEEEKKKAAVVVSKSGSLKKRKQNEAAKEAETPQAKKIKLQTPNTFPKRKKGEKRASSPFRRVREEEIEVDSRVADNSFDAKRGAAGDWGERANQVLKFTKGKSFRHEKTKKKRGSYRGGSISVQVNSIKFDSE [NOLC1] | -2.83 | -4.21 | 59.5 | 57 | -0.953 | 1.11
MAPWGKRLAGVRGVLLDISGVLYDSGAGGGTAIAGSVEAVARLKRSRLKVRFCTNESQKSRAELVGQLQRLGFDISEQEVTAPAPAACQILKEQGLRPYLLIHDGVRSEFDQIDTSNPNCVVIADAGESFSYQNMNNAFQVLMELEKPVLISLGKGRYYKETSGLMLDVGPYMKALEYACGIKAEVVGKPSPEFFKSALQAIGVEAHQAVMIGDDIVGDVGGAQRCGMRALQVRTGKFRPSDEHHPEVKADGYVDNLAEAVDLLLQHADK [LHPP] | -1.67 | -2.15 | 56.5 | 55.5 | 0.392 | 0.0085
MAQTPAFDKPKVELHVHLDGSIKPETILYYGRRRGIALPANTAEGLLNVIGMDKPLTLPDFLAKFDYYMPAIAGCREAIKRIAYEFVEMKAKEGVVYVEVRYSPHLLANSKVEPIPWNQAEGDLTPDEVVALVGQGLQEGERDFGVKARSILCCMRHQPNWSPKVVELCKKYQQQTVVAIDLAGDETIPGSSLLPGHVQAYQEAVKSGIHRTVHAGEVGSAEVVKEAVDILKTERLGHGYHTLEDQALYNRLRQENMHFEICPWSSYLTGAWKPDTEHAVIRLKNDQANYSLNTDDPLIFKSTLDTDYQMTKRDMGFTEEEFKRLNINAAKSSFLPEDEKRELLDLLYKAYGMPPSASAGQNL [ADA] | -1.89 | -1.32 | 57.9 | 59.2 | 0.319 | -0.0197
ZNF207 | -5.35 | -6.05 | 55.8 | 55.4 | 0.0156 | 0.36
MSNMEKHLFNLKFAAKELSRSAKKCDKEEKAEKAKIKKAIQKGNMEVARIHAENAIRQKNQAVNFLRMSARVDAVAARVQTAVTMGKVTKSMAGVVKSMDATLKTMNLEKISALMDKFEHQFETLDVQTQQMEDTMSSTTTLTTPQNQVDMLLQEMADEAGLDLNMELPQGQTGSVGTSVASAEQDELSQRLARLRDQV [CHMP1B] | 0.0467 | -0.997 | 51.8 | 52.2 | 0.304 | 0.158
MTILPKKKPPPPDADPANEPPPPGPMPPAPRRGGGVGVGGGGTGVGGGDRDRDSGVVGARPRASPPPQGPLPGPPGALHRWALAVPPGAVAGPRPQQASPPPCGGPGGPGGGPGDALGAAAAGVGAAGVVVGVGGAVGVGGCCSGPGHSKRRRQAPGVGAVGGGSPEREEVGAGYNSEDEYEAAAARIEAMDPATVEQQEHWFEKALRDKKGFIIKQMKEDGACLFRAVADQVYGDQDMHEVVRKHCMDYLMKNADYFSNYVTEDFTTYINRKRKNNCHGNHIEMQAMAEMYNRPVEVYQYSTGTSAVEPINTFHGIHQNEDEPIRVSYHRNIHYNSVVNPNKATIGVGLGLPSFKPGFAEQSLMKNAIKTSEESWIEQQMLEDKKRATDWEATNEAIEEQVARESYLQWLRDQEKQARQVRGPSQPRKASATCSSATAAASSGLEEWTSRSPRQRSSASSPEHPELHAELGMKPPSPGTVLALAKPPSPCAPGTSSQFSAGADRATSPLVSLYPALECRALIQQMSPSAFGLNDWDDDEILASVLAVSQQEYLDSMKKNKVHRDPPPDKS [OTUD5] | -1.93 | 0.592 | 51.6 | 52.4 | 0.259 | 0.178
